Biological target: activated human plasma kallikrein (Enzyme Research Laboratories) (human) (UniProt P03952)
Test: cell-based or functional assay

UniProt P03952, sequence (P03952 20-638 limits assumed): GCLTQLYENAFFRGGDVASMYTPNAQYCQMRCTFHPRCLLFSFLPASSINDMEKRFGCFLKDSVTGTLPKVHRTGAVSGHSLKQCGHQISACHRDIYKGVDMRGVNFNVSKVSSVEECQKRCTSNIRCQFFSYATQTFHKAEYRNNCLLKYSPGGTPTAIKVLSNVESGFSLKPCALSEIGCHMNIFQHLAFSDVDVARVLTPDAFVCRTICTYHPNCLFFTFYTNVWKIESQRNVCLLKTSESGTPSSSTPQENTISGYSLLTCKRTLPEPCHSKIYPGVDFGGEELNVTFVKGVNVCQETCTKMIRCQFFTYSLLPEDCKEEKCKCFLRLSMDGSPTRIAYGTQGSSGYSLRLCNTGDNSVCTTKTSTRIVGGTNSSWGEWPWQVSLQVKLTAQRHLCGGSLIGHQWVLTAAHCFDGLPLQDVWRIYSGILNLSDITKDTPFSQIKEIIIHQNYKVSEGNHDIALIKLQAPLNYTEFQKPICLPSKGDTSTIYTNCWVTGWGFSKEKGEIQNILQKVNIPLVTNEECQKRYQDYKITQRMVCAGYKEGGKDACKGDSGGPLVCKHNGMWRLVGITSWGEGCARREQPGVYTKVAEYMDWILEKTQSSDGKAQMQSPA

- suppression of pKal activity (PFR-AMC fluorogenic kinetic enzymatic assay): 0.1 nM
Substance: Therapeutic antibody (GenScript), human anti-pKal antibody (lanadelumab)

— US20240124890A1
